Test results taken from the Immune Epitope Database (IEDB).
One block for each sequence: values may come before it.

Columns and labels:
[1] = biological target: HLA-B*15:01; experiment: IEDB peptide-MHC binding, purified MHC/competitive/fluorescence; ≥ and ≤ were set here for values at or beyond the usual limits of such assays
[2] = biological target: HLA-A*02:01; experiment: as above
[3] = biological target: HLA-A*02:01; experiment: IEDB peptide-MHC binding, purified MHC/competitive/radioactivity; filed as Kd, often an IC50 or EC50 that approximates it; ≥ and ≤ were set here for values at or beyond the usual limits of such assays
[4] = biological target: HLA-A*02:06; experiment: as above
[5] = biological target: HLA-A*02:17; experiment: as above
[6] = biological target: HLA-A*02:03; experiment: as above
[7] = biological target: HLA-B*15:01; experiment: as above
[8] = biological target: HLA-B*07:02; experiment: as above
[9] = biological target: HLA-B*51:01; experiment: as above
[10] = biological target: HLA-B*35:01; experiment: as above
[11] = biological target: HLA-B*54:01; experiment: as above
[12] = biological target: HLA-B*53:01; experiment: as above
[13] = biological target: HLA-A*01:01; experiment: as above; conditions: source organism: Dengue virus 4 Philippines/H241/1956
[14] = biological target: HLA-A*24:02; experiment: IEDB peptide-MHC binding, purified MHC/competitive/fluorescence; ≥ and ≤ were set here for values at or beyond the usual limits of such assays
[15] = biological target: HLA-B*58:01; experiment: IEDB peptide-MHC binding, purified MHC/direct/fluorescence; filed as Kd, often an IC50 or EC50 that approximates it; ≥ and ≤ were set here for values at or beyond the usual limits of such assays; conditions: source organism: Listeria monocytogenes
[16] = biological target: HLA-B*57:01; experiment: as above; conditions: source organism: Listeria monocytogenes
[17] = biological target: HLA-B*46:01; experiment: IEDB peptide-MHC binding, purified MHC/competitive/fluorescence; filed as Kd, often an IC50 or EC50 that approximates it; ≥ and ≤ were set here for values at or beyond the usual limits of such assays; conditions: source organism: Listeria monocytogenes J0161
[18] = biological target: HLA-A*01:01; experiment: as above
[19] = biological target: HLA-A*03:01; experiment: as above; conditions: source organism: Salmonella enterica subsp. enterica serovar Typhi
[20] = biological target: HLA-B*15:01; experiment: as above; conditions: source organism: Salmonella enterica subsp. enterica serovar Typhi
[21] = biological target: HLA-B*08:01; experiment: IEDB peptide-MHC binding, purified MHC/competitive/radioactivity; filed as Kd, often an IC50 or EC50 that approximates it; ≥ and ≤ were set here for values at or beyond the usual limits of such assays; conditions: source organism: Dengue virus 1 Brazil/97-11/1997
[22] = biological target: HLA-A*30:02; experiment: as above; conditions: source organism: Dengue virus 3 Martinique/1243/1999
[23] = biological target: HLA-A*23:01; experiment: as above; conditions: source organism: Dengue virus 2 Peru/IQT2913/1996
[24] = biological target: HLA-A*24:02; experiment: as above; conditions: source organism: Dengue virus 2 Peru/IQT2913/1996
[25] = biological target: HLA-A*11:01; experiment: IEDB peptide-MHC binding, purified MHC/competitive/fluorescence; ≥ and ≤ were set here for values at or beyond the usual limits of such assays; conditions: source organism: Vaccinia virus WR
[26] = biological target: HLA-A*32:01; experiment: IEDB peptide-MHC binding, purified MHC/competitive/radioactivity; filed as Kd, often an IC50 or EC50 that approximates it; ≥ and ≤ were set here for values at or beyond the usual limits of such assays; conditions: source organism: Vaccinia virus WR
[27] = source organism: Zaire ebolavirus
[28] = source organism: Dengue virus 1 Singapore/S275/1990
[29] = source organism: Dengue virus 1 Brazil/97-11/1997
[30] = source organism: Dengue virus 2 Jamaica/1409/1983
[31] = source organism: Vaccinia virus WR
[32] = source organism: Dengue virus 4 Philippines/H241/1956
[33] = source organism: Triticum aestivum
[34] = source organism: SARS coronavirus Tor2
[35] = source organism: Dengue virus 3 Martinique/1243/1999
[36] = source organism: Dengue virus 2 Peru/IQT2913/1996

Sequence: AGVNVGEQY
IC50 [1, 27]: 23300 nM

Sequence: AIALGVATA
IC50 [2, 27]: 861 nM
IC50 [1, 27]: ≥ 237000 nM

Sequence: ALIAVLTGGV
Kd [3, 28]: 7.67 nM
Kd [4, 29]: 20.3 nM
Kd [5, 28]: 236 nM
Kd [6, 29]: 1.06 nM

Sequence: AQMWTLMYF
Kd [4, 30]: 2.75 nM
Kd [7, 30]: 0.725 nM

Sequence: CKSRNTTPM
IC50 ([1]; source organism: Vaccinia virus): ≥ 221000 nM

Sequence: EPLSPDTCL
Kd [8, 31]: 10500 nM
Kd [9, 31]: 211 nM
Kd [10, 31]: 522 nM
Kd [11, 31]: ≥ 78100 nM
Kd [12, 31]: 189 nM

Sequence: FLEFEALGFL
Kd [3, 32]: 28.1 nM
Kd [13]: 3230 nM
Kd [5, 32]: 107 nM

Sequence: FLIDGPETA
Kd [3, 30]: 17.4 nM
Kd [4, 30]: 377 nM
Kd [5, 30]: 1680 nM
Kd [6, 30]: 12.8 nM

Sequence: FLMTATLED
IC50 ([2]; source organism: Variola virus): 2590 nM
IC50 ([1]; source organism: Variola virus): 28600 nM
IC50 ([14]; source organism: Variola virus): ≥ 78300 nM

Sequence: FPQHVITKDV
Kd [8, 31]: 57.3 nM
Kd [9, 31]: 66.2 nM
Kd [10, 31]: 153 nM
Kd [11, 31]: 0.46 nM
Kd [12, 31]: 16.2 nM

Kd [8, 33]: 14100 nM
Kd [9, 33]: 20.4 nM
Kd [10, 33]: 244 nM
Kd [11, 33]: ≥ 87700 nM
Kd [12, 33]: 1040 nM
Sequence: FPQPQLPY

Sequence: FSIMIYFTF
Kd [15]: ≥ 20000 nM
Kd [16]: ≥ 20000 nM
Kd [17]: ≥ 20000 nM

Sequence: FTAMQALDY
Kd ([18]; source organism: Salmonella enterica subsp. enterica serovar Typhi): 1.6 nM
Kd [19]: ≥ 20000 nM
Kd [20]: 98.6 nM

Sequence: GPKVKYLYF
Kd [8, 34]: 15800 nM
Kd [9, 34]: 13600 nM
Kd [10, 34]: ≥ 52000 nM
Kd [11, 34]: 10400 nM
Kd [12, 34]: ≥ 41000 nM

Sequence: GPLVRKIFV
Kd [8, 34]: 1380 nM
Kd [9, 34]: ≥ 22500 nM
Kd [10, 34]: 6070 nM
Kd [11, 34]: 18000 nM
Kd [12, 34]: 11900 nM

Sequence: GTFDLGGLY
Kd ([18]; source organism: Influenza A virus (A/X-31(H3N2))): 486 nM

Sequence: HPDFCKNRRY
Kd [8, 31]: ≥ 69600 nM
Kd [9, 31]: ≥ 69600 nM
Kd [10, 31]: 2210 nM
Kd [11, 31]: ≥ 49300 nM
Kd [12, 31]: 1140 nM

Sequence: HPRHYATIM
Kd ([8]; source organism: Variola virus): 1.56 nM
Kd ([9]; source organism: Variola virus): 19100 nM
Kd ([10]; source organism: Variola virus): 153 nM
Kd ([11]; source organism: Variola virus): 18200 nM
Kd ([12]; source organism: Variola virus): 17200 nM

Sequence: HQLWTTLLSL
Kd [4, 29]: 91.8 nM
Kd [21]: 1990 nM
Kd [7, 29]: 1.2 nM

Sequence: IEILNTIQF
IC50 [1, 31]: ≥ 139000 nM
IC50 [14, 31]: ≥ 310000 nM

Sequence: ILALFLAHY
Kd [22]: 9830 nM
Kd [7, 35]: 53.8 nM

Sequence: ILQKTERGV
IC50 [2, 27]: 8690 nM
IC50 [1, 27]: 63300 nM

Sequence: IMASENSSA
IC50 [2, 27]: 2480 nM
IC50 [1, 27]: ≥ 106000 nM

Sequence: IMLIPTVMAF
Kd [7, 36]: 2.69 nM
Kd [23]: 82 nM
Kd [24]: 1540 nM
Kd [12, 36]: 11100 nM

Sequence: ISIKVKNHI
Kd [7, 31]: 5600 nM

Sequence: KLNDWDFVV
Kd [4, 35]: 44.6 nM
Kd ([5]; source organism: Dengue virus 3 China/80-2/1980): 126 nM
Kd [6, 35]: 20.1 nM

Sequence: KSINVEYRF
IC50 [2, 31]: 3450 nM
IC50 [25]: ≥ 170000 nM
IC50 [1, 31]: ≥ 98400 nM
IC50 [14, 31]: 643 nM
Kd [26]: 1.53 nM

Sequence: LIHQGMHMV
IC50 [2, 27]: 443 nM
IC50 [1, 27]: ≥ 87600 nM

Sequence: LIIYYQLAG
Kd [7, 31]: 1290 nM
